Reference: the RNAGym collection of RNA variant scans (doi:10.1073/pnas.2313332121)

B1: TPR t1 (parent)
chain: GACCAAUCUGCCCUCAGAGCUCGAGAACAUCUUCGGAUGCAGAGGAGGCAGGCUUCGGUGGCGCGAUAGCGCCAACGUCCUCAACCUCCAAUGCAUCCCACCACAUGAUGAUGCCUGAAGAGCCUUGGUUUUUUG

Variants of: B1
Test: polymerase ribozyme fitness, log enrichment relative to wild type (log ratio); higher = more active; in vitro selection for triplet polymerase activity
In short: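 Mutant libraries of each subunit of a heterodimeric triplet polymerase ribozyme were built by PCR and transcribed. Each library went through one round of in vitro selection in triplicate: annealing with biotinylated primer, partner subunit and triplets, frozen incubation at −7 °C, gel excision of extended constructs, streptavidin-bead capture and RT-PCR. Input and output libraries were Illumina-sequenced; only genotypes with ≥10 input reads and ≥1 read per output were kept. Fitness is log2(genotype enrichment/wild-type enrichment), using inverse-variance-weighted replicate averages.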

| Variant | polymerase ribozyme fitness (log ratio) |
| --- | --- |
| G110C G128U | -4.78 |
| C115A G122A | -0.767 |
| G110A G117U | -4.78 |
| A111U C123U G127C | -4.76 |
| U116A A121G | 0.178 |
| U112G A118G | 0.909 |
| G110A G113A | -3.95 |
| A118U U133A | -1.21 |
| G117C G120C | -3.46 |
| G117C U130G | -3.7 |
| U112G G127C U130C | -0.498 |
| G113U G122A | -2.45 |
| G117A C123A | -0.382 |
| U106A U129A | -1.17 |
| U112A G135A | 2.15 |
| U109C C114U | -4.7 |
| C115G G128U | -5 |
| A105U U116C | -3.7 |
| U109A | -5.11 |
| U109C | -2.41 |
| U109G | -4.35 |
| G117U U129A | -3.5 |
| A111C G122U C123U U130C | -0.737 |
| A111U G113C C115G | -7.15 |

| Variant | polymerase ribozyme fitness (log ratio) |
| --- | --- |
| A111G C114G C123U | -6.41 |
| U106C A118U | -0.171 |
| U109A G120C | -4 |
| G117U A118U U130C | -3.28 |
| C114U G117C | -7.14 |
| U116C U130G | -1.58 |
| G110A G122A C123U | -2.1 |
| C114U C123U | -1.92 |
| G110U G135C | -1.54 |
| G117C C124A | -1.5 |
| C115U U116C | -2.06 |
| U109A U132C | -5.12 |
| G113A C115U | -3.6 |
| G107A G122A | -5.18 |
| C104U U106A | -0.522 |
| C115U G128A | -2.99 |
| U109C A118U | -4.34 |
| G113C G127C | -3.73 |
| G113C C115U | -3.35 |
| G107U C114U | -3.8 |
| G117C A121G U130C | 0.325 |
| C114G G127A | -4.97 |
| U116G G117C | -2.43 |
| U106G G110C U112C | -5.6 |

| Variant | polymerase ribozyme fitness (log ratio) |
| --- | --- |
| A108G G113A | -2.47 |
| G110C G117U | -5.43 |
| G110A G127C | -1.94 |
| U109C U132A | -4.52 |
| A118U G120U | -0.245 |
| G113A A119U U126A | -3.89 |
| A111G U132A | 0.715 |
| A105C C114A | -3.98 |
| C114G G135U | -2.93 |
| G110C U129G | -5.19 |
| U106A C124A | 1.81 |
| U106G A119G | 0.3 |
| U112A U130G | -0.266 |
| U112A U130C | 1.38 |
| G117U G120A | -2.24 |
| C114G C124A | -1.15 |
| U106A A111C | -1.96 |
| G117A G128C | -3.45 |
| U106G G117C | -1.59 |
| C114U U126A | -3.35 |
| U112A G120A | 0.565 |
| G107U G113A | -3.27 |
| U112C C123A | -0.0765 |
| G117C U131A | -4.01 |

| Variant | polymerase ribozyme fitness (log ratio) |
| --- | --- |
| G117A A121C | -0.623 |
| U106G C123U G127A | -3.09 |
| G110A C124G G128C | -3.19 |
| A118U G128A | -1.29 |
| G110C U125C | -2.68 |
| G117A G120A | -2.42 |
| G113C U133A | -2.13 |
| C115A U126C | -0.397 |
| G113U U133C | -2.64 |
| U106G C114G | -3.54 |
| G117A U133A | -1.2 |
| G110C C115U | -4.71 |
| C114A G128U | -3.33 |
| C114A G128C | -3.78 |
| G113U U129A | -3.53 |
| G113A G135U | -2.05 |
| C115U U126G | -3.36 |
| A105U C124U | -0.354 |
| U112A G128U | -0.362 |
| G110U A121C | -2.17 |
| G110A A118G | -1.12 |
| G110U G117C | -5.42 |
| G113C G128U | -4.01 |
| G117A U125A | -3.14 |

| Variant | polymerase ribozyme fitness (log ratio) |
| --- | --- |
| C114A U116G | -3.78 |
| U116C G127A U130G | -4.14 |
| U116A U125A | -3.4 |
| A118G | -0.226 |
| A118U | 0.282 |
| A118C | -2.45 |
| C115U U133A | -0.794 |
| G107U A111U | -4.03 |
| C115A G120U | -0.0245 |
| A105U G113A | -4.72 |
| G110U C123U | -1.39 |
| A108U C123G | -3.08 |
| A108U C123A | -5.15 |
| A118U C123U | -0.82 |
| G117U A119U C123U | -0.29 |
| G117C A121C | -3.29 |
| A105C U125G | -3.17 |
| C115U C124G | 0.35 |
| U109G A118G | -5.14 |
| C104U U112G | 0.761 |
| C115G U126C U132A | -4.83 |
| G110C A118U | -4.26 |
| G113A G122A | -2.77 |
| U112A C115A | 1.16 |

| Variant | polymerase ribozyme fitness (log ratio) |
| --- | --- |
| A105U G135U | -2.99 |
| A105U G135C | -2.07 |
| C114A G117U | -6.19 |
| G117C G122U | -3.99 |
| G107A A108G G120A C124A | -3.55 |
| G113U U126A | -4.71 |
| C115U G117A | -1.61 |
| A111C U131A | -1.12 |
| G113C G122A | -3.11 |
| G113C G122U | -1.42 |
| G113C G120U | -3.23 |
| G117C U132A | -3.52 |
| U116G G128U | -4.55 |
| U112C U129C | 0.894 |
| G110A U112C G117A | -4.79 |
| G113U C124G | -1.38 |
| C114U U129A | -3.98 |
| C114U U129G | -4.52 |
| A111U G113A | -4.49 |
| A119U A121U | 1.77 |
| G110A G128U | -3.47 |
| U112C U116A | -1.02 |
| A111C U126C | 0.272 |
| G107A U130C | -4.85 |

| Variant | polymerase ribozyme fitness (log ratio) |
| --- | --- |
| U112C U132A | 1.65 |
| A108U G120U | -5.29 |
| U106A G117U G127U | -0.344 |
| G113U C114A | -4.29 |
| G107C G110A G117A U130C | -6.86 |
| C104U U116C | -0.608 |
| G117A U130A | -2.15 |
| G110C U133A | -4.65 |
| G113A U134G G135U | -1.24 |
| C115A A119U G122U | -0.198 |
| U112G U125C | 0.47 |
| G113A G128A | -2.92 |
| G113C C124U G127C | -3.7 |
| U112A G117A G120U C124G | -1.37 |
| U112G G128C | -2.91 |
| U109A U131G | -5.71 |
| C114A G122A | -2.53 |
| A105U U126A U129A U130G | -6 |
| A105C G120A A121U | -1.51 |
| C115A C124U | 0.564 |
| A111U U125A | -3.84 |
| C115U U131A | -0.58 |
| G110C G120U | -4.38 |
